Consider four molecules from patent US20220175895A1 (ACADEMIA SINICA, published 2022).

The target in data set [1] is Flag-VPS34 previously ubiquitinated in vitro by UBE3C, Q8NEB9.
Another data set addresses T1, Rubicon (UniProt Q92622 1-972, limits assumed).
T1 sequence (looked up): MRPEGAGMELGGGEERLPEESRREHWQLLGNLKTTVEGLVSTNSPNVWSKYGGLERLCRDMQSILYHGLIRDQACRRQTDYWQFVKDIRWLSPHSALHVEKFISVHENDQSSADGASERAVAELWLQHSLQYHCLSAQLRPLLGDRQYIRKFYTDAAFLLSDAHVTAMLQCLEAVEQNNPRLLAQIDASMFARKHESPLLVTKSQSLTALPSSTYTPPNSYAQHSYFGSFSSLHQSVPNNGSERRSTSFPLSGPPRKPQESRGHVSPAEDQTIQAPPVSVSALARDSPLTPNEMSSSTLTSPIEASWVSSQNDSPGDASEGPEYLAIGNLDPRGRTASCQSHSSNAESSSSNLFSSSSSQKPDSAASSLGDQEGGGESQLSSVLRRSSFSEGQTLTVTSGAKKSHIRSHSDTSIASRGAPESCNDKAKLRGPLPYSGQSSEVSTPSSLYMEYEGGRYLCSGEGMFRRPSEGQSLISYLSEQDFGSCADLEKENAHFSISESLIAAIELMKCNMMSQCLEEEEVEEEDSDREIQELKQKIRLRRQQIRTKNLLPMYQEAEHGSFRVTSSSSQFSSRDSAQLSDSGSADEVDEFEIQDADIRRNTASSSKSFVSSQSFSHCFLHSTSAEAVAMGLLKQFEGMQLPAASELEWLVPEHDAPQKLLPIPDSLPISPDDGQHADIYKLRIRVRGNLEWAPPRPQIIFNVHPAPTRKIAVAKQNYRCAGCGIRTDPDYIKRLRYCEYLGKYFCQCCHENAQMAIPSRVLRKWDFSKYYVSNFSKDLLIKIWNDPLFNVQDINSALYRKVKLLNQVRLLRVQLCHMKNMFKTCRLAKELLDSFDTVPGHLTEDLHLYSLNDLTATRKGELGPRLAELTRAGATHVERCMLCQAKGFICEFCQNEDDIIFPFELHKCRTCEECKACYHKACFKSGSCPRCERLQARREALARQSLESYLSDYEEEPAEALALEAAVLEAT
Kind of data set: immunoprecipitation in 293T cells transfected with Flag-TRABID, fed or starved 2 h (FIG. 2R).

In a further data set the target is T2, endogenous VPS34 (UniProt Q8NEB9 1-887).
T2 construct: also called vacuolar protein sorting 34; PI3 Kinase Class III
Kind of data set: co-immunoprecipitation from 293T cells (FIG. 2I).

Sequence of Flag-VPS34, Q8NEB9 (Q8NEB9 whole entry, looked up): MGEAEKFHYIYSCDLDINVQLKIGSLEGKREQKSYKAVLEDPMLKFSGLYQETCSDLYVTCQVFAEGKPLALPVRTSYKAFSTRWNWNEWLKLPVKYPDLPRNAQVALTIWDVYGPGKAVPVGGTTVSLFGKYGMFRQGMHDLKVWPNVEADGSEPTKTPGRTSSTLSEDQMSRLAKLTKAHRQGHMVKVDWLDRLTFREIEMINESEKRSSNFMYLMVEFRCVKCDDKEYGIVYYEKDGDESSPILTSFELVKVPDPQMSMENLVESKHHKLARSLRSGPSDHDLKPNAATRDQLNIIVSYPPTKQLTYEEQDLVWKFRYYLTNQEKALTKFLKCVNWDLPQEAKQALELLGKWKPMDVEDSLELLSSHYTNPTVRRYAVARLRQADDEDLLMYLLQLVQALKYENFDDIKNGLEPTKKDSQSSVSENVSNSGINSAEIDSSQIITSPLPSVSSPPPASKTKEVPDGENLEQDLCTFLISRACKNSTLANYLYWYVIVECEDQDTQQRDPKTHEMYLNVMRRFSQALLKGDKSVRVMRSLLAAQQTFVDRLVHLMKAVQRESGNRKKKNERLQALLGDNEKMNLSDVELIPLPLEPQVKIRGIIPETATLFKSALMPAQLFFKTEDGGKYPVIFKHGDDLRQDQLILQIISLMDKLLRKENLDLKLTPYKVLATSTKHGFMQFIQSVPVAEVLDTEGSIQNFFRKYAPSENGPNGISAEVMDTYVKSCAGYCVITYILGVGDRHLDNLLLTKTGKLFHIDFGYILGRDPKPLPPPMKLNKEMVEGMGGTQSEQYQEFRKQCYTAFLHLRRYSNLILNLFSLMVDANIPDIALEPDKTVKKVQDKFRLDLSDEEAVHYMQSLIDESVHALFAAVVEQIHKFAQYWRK
Sequence of Flag-VPS34 previously ubiquitinated in vitro by UBE3C, Q8NEB9 (Q8NEB9 whole entry, looked up): as above
T2 sequence (Q8NEB9 whole entry): as the sequence (Q8NEB9 whole entry, looked up) above

B1: purified TRABID (Boston Biochem; E-560) (protein)
chain: MSERGIKWACEYCTYENWPSAIKCTMCRAQRPSGTIITEDPFKSGSSDVGRDWDPSSTEGGSSPLICPDSSARPRVKSSYSMENANKWSCHMCTYLNWPRAIRCTQCLSQRRTRSPTESPQSSGSGSRPVAFSVDPCEEYNDRNKLNTRTQHWTCSVCTYENWAKAKRCVVCDHPRPNNIEAIELAETEEASSIINEQDRARWRGSCSSGNSQRRSPPATKRDSEVKMDFQRIELAGAVGSKEELEVDFKKLKQIKNRMKKTDWLFLNACVGVVEGDLAAIEAYKSSGGDIARQLTADEVRLLNRPSAFDVGYTLVHLAIRFQRQDMLAILLTEVSQQAAKCIPAMVCPELTEQIRREIAASLHQRKGDFACYFLTDLVTFTLPADIEDLPPTVQEKLFDEVLDRDVQKELEEESPIINWSLELATRLDSRLYALWNRTAGDCLLDSVLQATWGIYDKDSVLRKALHDSLHDCSHWFYTRWKDWESWYSQSFGLHFSLREEQWQEDWAFILSLASQPGASLEQTHIFVLAHILRRPIIVYGVKYYKSFRGETLGYTRFQGVYLPLLWEQSFCWKSPIALGYTRGHFSALVAMENDGYGNRGAGANLNTDDDVTITFLPLVDSERKLLHVHFLSAQELGNEEQQEKLLREWLDCCVTEGGVLVAMQKSSRRRNHPLVTQMVEKWLDRYRQIRPCTSLSDGEEDEDDEDE
In the case of B1, the “in vitro deubiquitination assay, Western blot of total and K48 ubiquitin linkages on VPS34 (FIG. 2K)” value in data set [1] was “purified TRABID was capable of reducing the total and K48 ubiquitin linkages from this VPS34 in vitro”.

B2: Flag-TRABID (enzyme)
chain: MSERGIKWACEYCTYENWPSAIKCTMCRAQRPSGTIITEDPFKSGSSDVGRDWDPSSTEGGSSPLICPDSSARPRVKSSYSMENANKWSCHMCTYLNWPRAIRCTQCLSQRRTRSPTESPQSSGSGSRPVAFSVDPCEEYNDRNKLNTRTQHWTCSVCTYENWAKAKRCVVCDHPRPNNIEAIELAETEEASSIINEQDRARWRGSCSSGNSQRRSPPATKRDSEVKMDFQRIELAGAVGSKEELEVDFKKLKQIKNRMKKTDWLFLNACVGVVEGDLAAIEAYKSSGGDIARQLTADEVRLLNRPSAFDVGYTLVHLAIRFQRQDMLAILLTEVSQQAAKCIPAMVCPELTEQIRREIAASLHQRKGDFACYFLTDLVTFTLPADIEDLPPTVQEKLFDEVLDRDVQKELEEESPIINWSLELATRLDSRLYALWNRTAGDCLLDSVLQATWGIYDKDSVLRKALHDSLHDCSHWFYTRWKDWESWYSQSFGLHFSLREEQWQEDWAFILSLASQPGASLEQTHIFVLAHILRRPIIVYGVKYYKSFRGETLGYTRFQGVYLPLLWEQSFCWKSPIALGYTRGHFSALVAMENDGYGNRGAGANLNTDDDVTITFLPLVDSERKLLHVHFLSAQELGNEEQQEKLLREWLDCCVTEGGVLVAMQKSSRRRNHPLVTQMVEKWLDRYRQIRPCTSLSDGEEDEDDEDE
notes: not shown: Flag tag
Turning to B2, in the data set with Rubicon, the binding result is reported as “no binding”.

B3: endogenous TRABID (enzyme)
chain: MSERGIKWACEYCTYENWPSAIKCTMCRAQRPSGTIITEDPFKSGSSDVGRDWDPSSTEGGSSPLICPDSSARPRVKSSYSMENANKWSCHMCTYLNWPRAIRCTQCLSQRRTRSPTESPQSSGSGSRPVAFSVDPCEEYNDRNKLNTRTQHWTCSVCTYENWAKAKRCVVCDHPRPNNIEAIELAETEEASSIINEQDRARWRGSCSSGNSQRRSPPATKRDSEVKMDFQRIELAGAVGSKEELEVDFKKLKQIKNRMKKTDWLFLNACVGVVEGDLAAIEAYKSSGGDIARQLTADEVRLLNRPSAFDVGYTLVHLAIRFQRQDMLAILLTEVSQQAAKCIPAMVCPELTEQIRREIAASLHQRKGDFACYFLTDLVTFTLPADIEDLPPTVQEKLFDEVLDRDVQKELEEESPIINWSLELATRLDSRLYALWNRTAGDCLLDSVLQATWGIYDKDSVLRKALHDSLHDCSHWFYTRWKDWESWYSQSFGLHFSLREEQWQEDWAFILSLASQPGASLEQTHIFVLAHILRRPIIVYGVKYYKSFRGETLGYTRFQGVYLPLLWEQSFCWKSPIALGYTRGHFSALVAMENDGYGNRGAGANLNTDDDVTITFLPLVDSERKLLHVHFLSAQELGNEEQQEKLLREWLDCCVTEGGVLVAMQKSSRRRNHPLVTQMVEKWLDRYRQIRPCTSLSDGEEDEDDEDE
For B3, the binding result in the data set with endogenous VPS34 is “binds”.

B4: HA-UBE3C (protein)
chain: MFSFEGDFKTRPKVSLGGASRKEEKASLLHRTQEERRKREEERRRLKNAIIIQSFIRGYRDRKQQYSIQRSAFDRCATLSQSGGAFPIANGPNLTLLVRQLLFFYKQNEDSKRLIWLYQNLIKHSSLFVKQLDGSERLTCLFQIKRLMSLCCRLLQNCNDDSLNVALPMRMLEVFSSENTYLPVLQDASYVVSVIEQILHYMIHNGYYRSLYLLINSKLPSSIEYSDLSRVPIAKILLENVLKPLHFTYNSCPEGARQQVFTAFTEEFLAAPFTDQIFHFIIPALADAQTVFPYEPFLNALLLIESRCSRKSGGAPWLFYFVLTVGENYLGALSEEGLLVYLRVLQTFLSQLPVSPASASCHDSASDSEEESEEADKPSSPEDGRLSVSYITEECLKKLDTKQQTNTLLNLVWRDSASEEVFTTMASVCHTLMVQHRMMVPKVRLLYSLAFNARFLRHLWFLISSMSTRMITGSMVPLLQVISRGSPMSFEDSSRIIPLFYLFSSLFSHSLISIHDNEFFGDPIEVVGQRQSSMMPFTLEELIMLSRCLRDACLGIIKLAYPETKPEVREEYITAFQSIGVTTSSEMQQCIQMEQKRWIQLFKVITNLVKMLKSRDTRRNFCPPNHWLSEQEDIKADKVTQLYVPASRHVWRFRRMGRIGPLQSTLDVGLESPPLSVSEERQLAVLTELPFVVPFEERVKIFQRLIYADKQEVQGDGPFLDGINVTIRRNYIYEDAYDKLSPENEPDLKKRIRVHLLNAHGLDEAGIDGGGIFREFLNELLKSGFNPNQGFFKTTNEGLLYPNPAAQMLVGDSFARHYYFLGRMLGKALYENMLVELPFAGFFLSKLLGTSADVDIHHLASLDPEVYKNLLFLKSYEDDVEELGLNFTVVNNDLGEAQVVELKFGGKDIPVTSANRIAYIHLVADYRLNRQIRQHCLAFRQGLANVVSLEWLRMFDQQEIQVLISGAQVPISLEDLKSFTNYSGGYSADHPVIKVFWRVVEGFTDEEKRKLLKFVTSCSRPPLLGFKELYPAFCIHNGGSDLERLPTASTCMNLLKLPEFYDETLLRSKLLYAIECAAGFELS
With B4, the “in vitro ubiquitination assay, Western blot of polyubiquitin chain on VPS34 (FIG. 3I)” value with Flag-VPS34, Q8NEB9 was “baculovirally purified UBE3C could assemble polyubiquitin chain on VPS34 purified from 293T cells”.
